This is an account of results in PMC8561297.

Assay [1] concerns the target von Willebrand factor (human (endogenous in whole blood)) (UniProt P04275).
Assay [2] shares this target. This is another data set of the same source.

On to “platelet GPIbα (from UniProt P07359 17-652) (receptor)”, for which, in assay [1], the platelet adhesion at the stenosis apex, control (platelets/mm^2) came out at 3930; the platelet adhesion in the stenosis outlet, control (platelets/mm^2) came to 5040; the platelet rolling velocity at the stenosis apex, control was found to be 4.41 μm s^-1; the platelet rolling velocity at the stenosis apex, with scFv A1 came to 4.6 μm s^-1. Besides, in assay [2], the share of slow-rolling platelets at constant shear turned out to be 36% and the share of slow-rolling platelets at shear rate gradient worked out at 52.9%.
